Fold reduction of associated Reg1 against wild type Reg1 data for one substance are collected here from paper PMC2860547.

The assay has as its target Snf1 protein tagged with 3 copies of the HA epitope (wild type) (S. cerevisiae) (UniProt P06782). Nature of the assay: co-IP.
Chain of UniProt P06782 (P06782 whole entry): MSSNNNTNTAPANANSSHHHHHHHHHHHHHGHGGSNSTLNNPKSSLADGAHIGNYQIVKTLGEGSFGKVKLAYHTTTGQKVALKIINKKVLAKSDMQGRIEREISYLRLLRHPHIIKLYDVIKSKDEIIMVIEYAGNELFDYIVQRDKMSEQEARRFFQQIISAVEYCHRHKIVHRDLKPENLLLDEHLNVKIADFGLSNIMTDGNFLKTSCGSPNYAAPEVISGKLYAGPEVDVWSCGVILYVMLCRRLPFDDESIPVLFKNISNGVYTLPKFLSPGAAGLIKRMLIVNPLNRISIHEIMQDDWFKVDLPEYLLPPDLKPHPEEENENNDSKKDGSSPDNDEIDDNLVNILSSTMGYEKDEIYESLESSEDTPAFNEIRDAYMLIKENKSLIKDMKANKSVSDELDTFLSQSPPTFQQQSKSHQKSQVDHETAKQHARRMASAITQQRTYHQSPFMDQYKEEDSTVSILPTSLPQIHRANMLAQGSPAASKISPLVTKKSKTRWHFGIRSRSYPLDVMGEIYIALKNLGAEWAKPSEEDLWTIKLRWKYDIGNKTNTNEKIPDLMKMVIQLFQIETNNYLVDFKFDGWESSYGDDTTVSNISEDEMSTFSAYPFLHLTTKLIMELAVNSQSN

The substance “Reg1-IF (I466M, F468A) (from UniProt Q00816 1-1014) (natural protein)” gave a fold reduction of associated Reg1 against wild type Reg1 of 30 fold.
